According to ChEMBL document CHEMBL1144764, “A molecular modeling study of the interaction of 2'-fluoro-substituted analogues of dUMP/FdUMP with thymidylate synthase” (Bioorg Med Chem Lett, 2008):

Columns and labels:
[1] = substrate: O=c1ccn([C@@H]2O[C@H](COP(=O)(O)O)[C@@H](O)[C@H]2F)c(=O)[nH]1; conditions: Homo sapiens
Description: (§1) Activity at human recombinant thymidylate synthase

[2] = substrate: O=c1ccn([C@H]2C[C@H](O)[C@@H](COP(=O)(O)O)O2)c(=O)[nH]1; conditions: Homo sapiens
Description: as §1

B1: Thymidylate synthase (Homo sapiens), P04818 (protein)
chain: MPVAGSELPRRPLPPAAQERDAEPRPPHGELQYLGQIQHILRCGVRKDDRTGTGTLSVFGMQARYSLRDEFPLLTTKRVFWKGVLEELLWFIKGSTNAKELSSKGVKIWDANGSRDFLDSLGFSTREEGDLGPVYGFQWRHFGAEYRDMESDYSGQGVDQLQRVIDTIKTNPDDRRIIMCAWNPRDLPLMALPPCHALCQFYVVNSELSCQLYQRSGDMGLGVPFNIASYALLTYMIAHITGLKPGDFIHTLGDAHIYLNHIEPLKIQLQREPRPFPKLRILRKVEKIDDFKAEDFQIEGYNPHPTIKMEMAV
Work on B1 yielded a Km [1] of 12.2 µM and a Km [2] of 5.25 µM.
